In paper PMC5269673:

Columns and labels:
[1] = biological target: Gramicidin A; assay: single-channel recording in planar lipid bilayers; gA added to both compartments of a painted DOPC bilayer; conductive channel = gA dimer; 10 mmol/L HEPES, 1 mol/L KCl, pH 7.4, 23 ± 2 °C, -100 mV; without and with AEA (up to 3 umol/L) or 3 umol/L 2-AG
[2] = biological target: Gramicidin A; assay: single-channel recording in planar lipid bilayers; gA added to both compartments of a painted DPhPC bilayer; conductive channel = gA dimer; 10 mmol/L HEPES, 1 mol/L KCl, pH 7.4, 23 ± 2 °C, -100 mV; without and with AEA

Gramicidin A (peptide)
fold increase of channel appearance frequency f (f/f control = k1/k1,control) with 3 umol/L AEA over no AEA [1]: 7.2 fold | fold increase of open channel lifetime tau (tau control/tau = k-1/k-1,control) with 3 umol/L AEA over no AEA [1]: 1.8 fold | fold increase of channel appearance frequency f (f/f control = k1/k1,control) with 3 umol/L AEA over no AEA [2]: 4 fold | fold increase of open channel lifetime tau (tau control/tau = k-1/k-1,control) with 3 umol/L AEA over no AEA [2]: 1.4 fold
